From article PMC10891604

Molecular target: T1, Lmo1172 (UniProt Q92CN5)
T1 sequence: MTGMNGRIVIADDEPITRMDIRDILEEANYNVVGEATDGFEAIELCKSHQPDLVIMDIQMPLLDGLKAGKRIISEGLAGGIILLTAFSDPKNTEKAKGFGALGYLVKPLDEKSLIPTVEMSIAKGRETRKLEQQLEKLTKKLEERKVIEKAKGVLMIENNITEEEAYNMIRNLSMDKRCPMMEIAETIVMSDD
Experiment: EMSA
Conditions: EMSA: 200 ng DNA in Beyotime binding buffer, 6% non-denaturing PAGE, ethidium bromide staining; salt, pH and temperature not stated

For “CTAATTCACCTCCACTAATATTTTACAACGAATTTACCCATAATAACCAAAAATGTAATGAAATGTCCGATTCTTGTCATGAACGACCAAAAAAGAGCAGAATTGCCGATTTTTTGGATACATTTCAGAATATTCGAACGTGTAAAAAGGACTGTATAATAGGCTTAAAAACCCATATTAATATTTTATTTAAGTGAGTTTATTCATAAAAAAAACCAACTGCAAAAGAATGTTCACAGTTGGCTTTTCCATTTTA (double strand) [P2 promoter DNA]”, the binding was “no binding”.
